For assay [1], the target named is T1, human ABCC4 (Homo sapiens, UniProt O15439).
T1 construct: expressed in transfected cells
T1 sequence (O15439 1-1325): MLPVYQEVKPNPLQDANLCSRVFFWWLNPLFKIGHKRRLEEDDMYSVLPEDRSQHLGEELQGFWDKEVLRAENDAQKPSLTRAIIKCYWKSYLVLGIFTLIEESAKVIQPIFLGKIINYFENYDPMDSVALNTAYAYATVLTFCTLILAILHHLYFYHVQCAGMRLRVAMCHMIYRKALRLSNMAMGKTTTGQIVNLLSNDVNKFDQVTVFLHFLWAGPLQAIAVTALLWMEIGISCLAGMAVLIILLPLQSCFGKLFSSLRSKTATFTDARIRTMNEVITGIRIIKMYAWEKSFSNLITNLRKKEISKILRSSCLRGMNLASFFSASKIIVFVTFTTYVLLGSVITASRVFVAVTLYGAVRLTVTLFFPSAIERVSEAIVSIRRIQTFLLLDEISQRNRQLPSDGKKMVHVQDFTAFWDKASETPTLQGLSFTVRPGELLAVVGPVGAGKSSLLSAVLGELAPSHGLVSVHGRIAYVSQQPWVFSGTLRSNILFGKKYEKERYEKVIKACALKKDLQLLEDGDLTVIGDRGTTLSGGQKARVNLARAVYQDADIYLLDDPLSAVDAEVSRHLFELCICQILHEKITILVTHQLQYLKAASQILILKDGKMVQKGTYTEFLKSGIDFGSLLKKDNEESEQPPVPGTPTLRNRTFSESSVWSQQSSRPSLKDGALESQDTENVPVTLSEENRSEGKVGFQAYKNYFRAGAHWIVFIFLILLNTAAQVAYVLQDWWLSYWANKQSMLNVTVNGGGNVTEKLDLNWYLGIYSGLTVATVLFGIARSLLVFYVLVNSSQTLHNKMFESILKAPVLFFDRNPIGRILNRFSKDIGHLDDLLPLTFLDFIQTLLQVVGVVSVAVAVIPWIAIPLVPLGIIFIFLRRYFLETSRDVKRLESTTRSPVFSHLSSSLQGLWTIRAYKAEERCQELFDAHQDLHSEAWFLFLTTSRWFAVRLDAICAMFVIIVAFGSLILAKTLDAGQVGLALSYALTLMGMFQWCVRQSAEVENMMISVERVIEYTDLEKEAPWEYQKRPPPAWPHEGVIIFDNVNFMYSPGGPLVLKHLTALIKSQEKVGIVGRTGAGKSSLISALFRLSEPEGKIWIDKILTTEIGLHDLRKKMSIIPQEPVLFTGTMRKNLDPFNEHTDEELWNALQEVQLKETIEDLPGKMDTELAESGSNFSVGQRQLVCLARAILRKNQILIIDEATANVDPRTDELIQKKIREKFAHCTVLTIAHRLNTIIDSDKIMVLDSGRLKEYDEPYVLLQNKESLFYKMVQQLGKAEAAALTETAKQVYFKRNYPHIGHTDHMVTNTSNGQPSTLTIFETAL
The experiment in a line: Flow cytometry (FACS) binding to C6 cells stably transfected to express human ABCC4 (different experiment, Table 4). The note with it: C6 cells stably transfected to express human ABCC4, FACS; different experiment, Table 4. A digest of the protocol:
(§1)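 Murine C6 cells stably expressing FLAG-tagged human or cynomolgus ABCC4 incubated 30 min on ice with antibodies, either 5 ug/mL or serially diluted from 100 ug/mL, in PBS+2% FBS+0.02% azide. Detection with PE anti-human IgG F(ab′)2 by flow cytometry; EC50 at half-maximal MFI; negative below background, positive >3× background.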
(In flow cytometry, cells or beads pass a laser one at a time.)

A further assay deals with cynomolgus ABCC4. The experiment in a line: Flow cytometry (FACS) binding to C6 cells stably transfected to express cynomolgus ABCC4 (different experiment, different C6.cC4 cell line, Table 4). More on the design: key to Cynomolgus ABCC4 binding: Negative (−)=Rmax (MFI) below background level; Positive (+)=MFI>3× background level. The note with it: different C6.cC4 cell line, C6 cells stably transfected to express cynomolgus ABCC4, FACS; Table 4. A digest of the protocol:
as §1

The target in assay [2] is T2, human ABCC4 (human, UniProt O15439 1-1325).
T2 construct: Expressed on murine C6 cells stably transfected with human ABCC4 cDNA with C-terminal FLAG tag; also called MRP4; Multidrug resistance protein 4; not shown: C-terminal fused FLAG tag
T2 sequence: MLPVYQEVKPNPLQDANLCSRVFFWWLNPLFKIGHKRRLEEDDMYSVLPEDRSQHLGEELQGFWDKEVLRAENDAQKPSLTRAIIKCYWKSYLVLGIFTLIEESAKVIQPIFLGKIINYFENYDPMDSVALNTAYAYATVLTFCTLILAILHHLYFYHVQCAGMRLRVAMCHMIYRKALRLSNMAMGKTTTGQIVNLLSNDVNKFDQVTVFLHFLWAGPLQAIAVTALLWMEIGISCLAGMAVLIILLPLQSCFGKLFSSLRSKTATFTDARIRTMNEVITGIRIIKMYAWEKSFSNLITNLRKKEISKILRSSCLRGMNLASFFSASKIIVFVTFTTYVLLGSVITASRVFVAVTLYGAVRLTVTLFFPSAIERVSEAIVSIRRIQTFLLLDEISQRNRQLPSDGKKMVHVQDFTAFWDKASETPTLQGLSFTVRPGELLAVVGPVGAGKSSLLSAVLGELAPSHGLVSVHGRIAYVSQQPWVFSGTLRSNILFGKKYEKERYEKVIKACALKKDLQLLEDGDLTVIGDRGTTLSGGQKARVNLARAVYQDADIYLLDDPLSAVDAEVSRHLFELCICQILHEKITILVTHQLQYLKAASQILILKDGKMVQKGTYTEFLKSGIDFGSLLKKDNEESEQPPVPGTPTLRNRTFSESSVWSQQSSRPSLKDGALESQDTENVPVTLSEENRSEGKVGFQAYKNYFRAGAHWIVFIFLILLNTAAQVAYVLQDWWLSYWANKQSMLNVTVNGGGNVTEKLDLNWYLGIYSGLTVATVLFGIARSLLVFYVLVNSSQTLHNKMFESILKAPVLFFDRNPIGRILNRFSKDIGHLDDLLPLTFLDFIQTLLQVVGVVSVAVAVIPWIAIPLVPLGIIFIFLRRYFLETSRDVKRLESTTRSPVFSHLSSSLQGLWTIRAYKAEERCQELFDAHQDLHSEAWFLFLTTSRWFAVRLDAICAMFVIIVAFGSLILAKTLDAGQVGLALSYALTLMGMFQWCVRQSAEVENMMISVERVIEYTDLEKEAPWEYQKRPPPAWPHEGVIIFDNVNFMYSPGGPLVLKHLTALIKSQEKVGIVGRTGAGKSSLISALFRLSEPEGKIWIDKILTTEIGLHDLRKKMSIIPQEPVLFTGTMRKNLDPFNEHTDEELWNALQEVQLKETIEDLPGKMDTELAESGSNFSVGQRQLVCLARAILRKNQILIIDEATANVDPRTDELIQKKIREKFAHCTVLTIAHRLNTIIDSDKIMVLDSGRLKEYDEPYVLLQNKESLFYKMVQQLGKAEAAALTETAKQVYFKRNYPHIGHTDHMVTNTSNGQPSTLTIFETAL
The experiment in a line: FACS, C6 cells stably expressing human ABCC4; + = MFI>3x background. On the procedure:
Antibody binding to cells was evaluated by flow cytometry. Murine C6 cells stably transfected to express human or cynomolgus ABCC4 were washed once in flow cytometry buffer (PBS+2% FBS+0.02% sodium azide), resuspended at 2×10\hat{ }6 cells/mL in flow cytometry buffer, and dispensed into 96-well microtiter plates at 0.1 mL/well. Recombinant antibodies were added to cells at 5 ug/mL for initial binding confirmation, or serially diluted from 100 ug/mL in flow cytometry buffer. After incubating cells on ice for 30 min, cells were washed twice with flow cytometry buffer. Bound antibody was detected with PE-labeled F(ab′)₂ fragment goat anti-human IgG (Jackson ImmunoResearch) and evaluated on an Attune N×T flow cytometer. EC50 is calculated to be the concentration of antibody that gives half maximal response.

B1: C4.1059 (antibody, V domains shown)
VH: QVQLLQSGAALVKPGASVKMSCKPSGYTFTDYWVSWVKQSHGKSLEWIGEIYPNNGATNFNEKFKGKATLTVDKSTSTAYMELSRLTSEDSAIYYCPSRKYGYNWNFDYWGQGTMVTVSS
VL: DIVLTQSPALAVSLGQRATISCWASQSVSISRYNLMHWYQQKPGQQPKLLIYRASNLASGIPARFSGSGSGTDFTLTINPVQADDIATYYCQQSGESPWTFGGGTKLELK
Turning to B1, in the assay with human ABCC4 [1], the “Human ABCC4 binding” value is “+ (Positive (+)=MFI>3× background level)”. Moreover, the “Cynomolgus ABCC4 binding” value in the assay on cynomolgus ABCC4 was “−”. In addition, the binding result with human ABCC4 [2] is on record as “binds”.

B2: C4.1148 (antibody, V domains shown)
VH: EVQLVESDGGLVQPGRSLKLSCAASGFTFSDYYMAWVRQAPPKGLEWVATISYDAFTTYYRDSVKGRFTISRDNAKTILFLQMDSLRSEDTATYYCIRLSTRYKGVMDAWGHGASVTVSS
VL: DIQMTQSPSNLAASPGESVSINCKASETIYKYLAWYQQKPGRTNKLLIYSGSTLQSGTPSRFSGSGSGTDFTLTIRNLEPEDFGRYYCQHHVEYPPTFGAGTKLELK
For B2, the “Human ABCC4 binding” value with human ABCC4 [1] was “+ (Positive (+)=MFI>3× background level)”. For the same molecule, the “Cynomolgus ABCC4 binding” value in the assay on cynomolgus ABCC4 is given as “−”. Further, the binding result with human ABCC4 [2] is “binds”.

B3: C4.1139 (antibody, V domains shown)
VH: EVQLVESDGGLVQPGRSLKLSCAASGFTFSDYYMAWVRQAPTKGLYWVASISYDGSTTYYRDSVKGRFTISRDNAKSTLYLQMGSLRSEDTATYYCARLSIRYKGVMDAWGRGASVTVSS
VL: DVVMTQSPSNLAASPGESVSINCKASKSIGKFLAWYQQKPGRPNKLLIYSGSTLQSGTPSRFSGSGSGTDFTLTIRNLEPGDFGLYYCQHHIEYPPTFGPGTKLELK
Take B3: the “Human ABCC4 binding” value with human ABCC4 [1] is “+ (Positive (+)=MFI>3× background level)”. The “Cynomolgus ABCC4 binding” value in the assay with cynomolgus ABCC4 was “−”. Also, the binding result with human ABCC4 [2] is reported as “binds”.

These data come from US20240010747A1, “ANTI-MRP4 (ENCODED BY ABCC4 GENE) ANTIBODIES AND USES THEREOF” (Kenjockety Biotechnology, Inc., priority 2020, published 2024).
